Assay results from publication PMC533864, “Selective inhibition of c-Myb DNA-binding by RNA polymers”.

Columns and labels:
c-Myb NR1R2R3 = c-Myb NR1R2R3 (Homo sapiens, UniProt P10242 1-192); test: EMSA; 20 mM Tris-HCl pH 8.0, 0.1 mM EDTA, 10% glycerol, 0.1 mM DTT, 0.005% Triton X-100, 50 mM NaCl, RNAguard 6-20 U, 20 uL, 25 C, 15 min; details: protein: recombinant; label: 32P
c-Myb R2R3 = c-Myb R2R3 (Homo sapiens, UniProt P10242 89-192); test: as above; details: protein: recombinant; label: 32P
Chain of c-Myb R2R3 (P10242 89-192): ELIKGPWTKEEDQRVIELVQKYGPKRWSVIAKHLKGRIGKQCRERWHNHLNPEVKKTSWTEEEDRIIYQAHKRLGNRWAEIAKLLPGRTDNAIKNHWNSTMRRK

Chain of c-Myb NR1R2R3 (P10242 1-192): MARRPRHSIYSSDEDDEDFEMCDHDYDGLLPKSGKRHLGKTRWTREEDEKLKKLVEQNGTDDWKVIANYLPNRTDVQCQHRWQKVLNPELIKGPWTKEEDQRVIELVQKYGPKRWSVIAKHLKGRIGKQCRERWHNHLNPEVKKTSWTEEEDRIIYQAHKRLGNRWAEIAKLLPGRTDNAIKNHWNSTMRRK

B1: MRE probe (mim-1 promoter) (dsDNA)
DNA 1: GCATTATAACGGTTTTTTAGCGC
DNA 2: GCGCTAAAAAACCGTTATAATGC
binding result (c-Myb NR1R2R3): binds
binding result (c-Myb R2R3): binds
